In patent US20110136738A1, “Alternatively Transcribed Genes Associated with Schizophrenia” (University College Dublin, National University of Ireland, …, priority 2008, published 2011):
“Also recorded” adds a separate entry of the source.

System: isolation reared animals
Assay: Prepulse inhibition of startle in isolation reared animals (ICV midkine)
Format: in vivo, male Wistar rats
Settings: isolation reared rats, four daily ICV injections of midkine 2 μg/day, compared to vehicle-treated animals
Protocol: Isolation-reared animals (isolated animals) were housed singly in non-soft bottom cages (22.5 cm×34.5 cm×17 cm), from time of weaning (postnatal day 25, P25) until completion of behavioral testing. A standard 12 hour light/dark cycle was observed and food and water was provided ad libitum. Noise and visual stimuli were kept to an absolute minimum as described previously by Geyer et al., 1993. Socially reared animals (social animals) were housed in groups of 4 from time of weaning until surgical implantation of a guide cannula on P80, there after they were housed singly. […] The startle apparatus consisted of a sound attenuating chamber (54.6×50.8×30.5 cm), a startle platform which measured the startle response, and an audio stimulator, controlled by the startle reflex software (MED Associates Inc.). […] The resulting movement of the rats was measured during 100 ms after startle stimulus onset, and then rectified, amplified and analyzed by computer and the maximal response and average response over the 100 ms period determined. Baseline startle amplitude was determined as the mean response of all startle trials. The percent prepulse inhibition was determined according to the following formula: 100-([startle amplitude at prepulse trial/startle amplitude at startle trial]×100%). The effect on baseline startle amplitude was analyzed by a one-way analysis of variance (ANOVA). […]

B1: midkine (protein, UniProt P21741 21-143, looked up)
Midkine: VAKKKDKVKKGGPGSECAEWAWGPCTPSSKDCGVGFREGTCGAQTQRIRCRVPCNWKKEFGADCKYKFENWGACDGGTGTKVRQGTLKKARYNAQCQETIRVTKPCTPKTKAKAKAKKGKGKD
Question: For B1, which “prepulse inhibition (PPI) of startle” value is on record?
Answer: Its value is “reverses the deficit observed in prepulse inhibition of startle; also recorded: reversed PPI behavior back to normal”.

Question: What about the “prepulse inhibition (PPI) of startle” value (listed as Midkine) of the same molecule?
Answer: The value was “reversed the deficit observed in prepulse inhibition of startle; also recorded: reversed PPI behavior back to normal”.
